Data on 2 molecules can be found in doi:10.1101/2020.07.02.184341, “Contact with the CsrA core is required for allosteric inhibition by FliW in Bacillus subtilis” (bioRxiv, 2020).

The target of experiment [1] is T1, purified untagged wild-type FliW (FliW^WT) (B. subtilis, UniProt P96503 1-143).
T1 construct: FliW, Bacillus subtilis; also called His6-SUMO-FliW^WT before cleavage; source: E. coli Rosetta gami, purified (Ni-NTA, size exclusion chromatography, SUMO tag cleaved)
T1 sequence (looked up): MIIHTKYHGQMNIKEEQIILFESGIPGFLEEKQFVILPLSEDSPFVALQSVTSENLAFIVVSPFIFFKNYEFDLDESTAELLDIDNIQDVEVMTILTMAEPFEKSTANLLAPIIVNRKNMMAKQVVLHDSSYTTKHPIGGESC
In words: pull-down; 0.25 uM GST-CsrA (WT or D41K) on Glutathione-Sepharose beads; FliW at 0.125, 0.167, 0.25, 0.333 and 0.5 uM, 2 h at 4 C in T(0.1) buffer (25 mM Tris-HCl pH 8.0, 20% glycerol, 100 mM NaCl, 1 mM DTT, 1 mg/mL BSA); 4 washes; supernatant and pellet on Western blots. Conditions: both partners purified.

The target of a further experiment is T2, purified FliW^K123E (B. subtilis, UniProt P96503 1-143, K123E).
T2 construct: FliW, Bacillus subtilis, with K123E; cloned in pTB146 (SapI/XhoI); source: E. coli Rosetta gami, purified (Ni-NTA, size exclusion chromatography, SUMO tag cleaved)
T2 sequence (looked up): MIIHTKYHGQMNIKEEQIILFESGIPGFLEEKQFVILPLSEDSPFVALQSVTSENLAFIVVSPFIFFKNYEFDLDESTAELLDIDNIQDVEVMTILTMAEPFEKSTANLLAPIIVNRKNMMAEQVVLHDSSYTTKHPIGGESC
Described as above. Conditions: both partners purified.

B1: GST tagged CsrA (GST-CsrA^WT) (natural protein, B. subtilis, UniProt P33911 1-74, looked up)
chain: MLVLSRKINEAIQIGADIEVKVIAVEGDQVKLGIDAPKHIDIHRKEIYLTIQEENNRAAALSSDVISALSSQKK
notes: CsrA, Bacillus subtilis, fused to GST; The D41K form was cloned in pGEX-2TK; source: E. coli Rosetta gami, purified (Glutathione-Sepharose, size exclusion chromatography)
For the molecule B1, in experiment [1], the binding result was “binds”.

B2: GST-CsrA^D41K (natural protein, B. subtilis, UniProt P33911 1-74, looked up)
chain: MLVLSRKINEAIQIGADIEVKVIAVEGDQVKLGIDAPKHIKIHRKEIYLTIQEENNRAAALSSDVISALSSQKK
notes: CsrA, Bacillus subtilis, with D41K, translational fusion to the GST tag in pGEX-2TK (BamHI/EcoRI); source: E. coli Rosetta gami, purified (Glutathione-Sepharose, size exclusion chromatography)
For B2, in the experiment with purified FliW^K123E, the binding result is recorded as “binds”.
